# From the DeepSol protein solubility set
# Assay: soluble on expression in E. coli; label from the status in PepcDB or PDB records
row,Sequence,soluble on expression in E. coli
1,MGSDKIHHHHHHMSDLKVLVIGYMHPRNDKRVFRTVQALSKRSEVIYQYWTEKEELPFKENNIRYIPVKCSNRGNIFQKAVKRKQVDEKIRHLVETEDYDILYMHHFPATKPLKPFVVAKKRGKKIVYDIHEYHPQNFLSTLPRPLSDLKGFVMWRIFKKQLQLSDLCIFVSEETRNDVVAKTGLDPEKTFIVPNYASMKIEPDPDKKKMEIVLVGKTPRNLIHEKKLIRALVERGFSFRIIGMDSEAFSDVPHTYTSFLPYEKMMEELSKSMFSLISYKPTGKEDKNYLYSLPHKFYDSIAAGTPVIVKNSFVSMAKMVEDLGIGVVIDPANVEESLKRIENACQRYEEILENIRRHQEGFVWDEKKEEEFLERVMG,not soluble
2,KSLLTAKTRNTIIFAFHPQAQKSSVAAAKIVYQAARKAGAPKDFIQWIETPSLENTTALMQNPEIASILATGGPSMVHAALTSGNPSMGVGAGNGAVFIDHTARVRRAAEDLLLSKRFDNGMICATE,not soluble
3,MSYEDWAGGIRCSECGREYTGIECPICRQADPTEREVVTEHGNGRGDQQPPENGTVSADSGVYDIDKIEHERHTDAEKVNPEVVDPSDYVTRAVSGVVFNKRHAWKAENRADEDNPPSLFVVTTADSEFNWIEIPLWDDAEGAMEDISIGDPIQAEGKLSKDNGVHNIHVHSQDSIDILTEPPEVKFDSMAIDQITSTTPKVDLEGTVERVGEIKDIQLDDEKVKLREIHVSDLNNDQIQVALWRTNAYEKVAPGDEIIIAGGLAKPHNEKVVVRVGWSGHIGYRSSLEHHHHHH,not soluble
4,MGSDKIHHHHHHMALLDIRNLCIEIETPKGRVKIIDNVNLTLNEGEICGLVGESGSGKSLIAKVICNAIKDSWIITADRFRFDDVELLKLNPKKRRKLVGKEISMIYQEPLASLDPSRKIGQQLIQSIPSWTFKGRWWQWFGWKKRRAIELLHRVGVKDHKDIMQSYPHEVTEGEGQKIMIALAIANQPRLLIADEPTNSLESMTKVQIFRLLASMNQNQGTSILLVSNDINSISAWCDSFSVLYCGQNAESGSKENILENPHHPYTRALLHSIPDFKQPLVHKSRLSTLKGAVPLLEGMPIGCRLGPRCPFAQKECIRKPTAQRIKQHEFFCHFPINLKESQRREKEMETGPLVVNTTK,not soluble
5,MGSDKIHHHHHHMETPTQDMDVRWLYTQSQLKLREILPTNKTFDVIQISELVDPTDFISPNSVVLSVGIAFAETPDGLRDWAHRLADAGVIAIGFGSGLTFPQVPQALIDASLHLGLGLFEVPREIPFISITSSVRDEQTRRAGRLQQELLLEQERLNSIAISGGIEALCRAAADYLGGAVAIVDSDGRVACSITTDDLDALPQAVSRLNGSSQALTDATNFGFIHRMTRYGDRHHVLSVLMPTRPSEQHRALIRHCAGLADILLQRPEAMRDREIEVRSLAMSLLLGRSDDLATIHRVFADITDASGNIRPILITGNTPQSVRKALSSVATALYKQERALAHLRLAESTELLFLRGSRSVHNIVQLFGTAASGVRLCIGLPTRAENIDKKLIRELTATAKTLQLGTHAEPRDGTLLWLQNPELRKILKIRSRDTYDRLLDHDRTNNTELAPTLVSFTQHSGHIGDTAKELGIHRHTVRTRMIRIEEICEIDLNDPLTRAELLLVIATKEGDVEKQ,not soluble
6,MGHHHHHHSHTQDKNYEDELTQVALALVEDVINYAVKIVEEERNPLKNIKWMTHGEFTVEKGLKQIDEYFSKCVSKKCWAHGVEFVERKDLIHSFLYIYYVHWSISTADLPVARISAGTYFTMKVSKTKPPDAPIVVSYVGDHQALVHRPGMVRFRENWQKNLTDAKYSFMESFPFLFNRV,not soluble
7,GSMDQRQKLQHWIHSCLRKADKNKDNKMNFKELKDFLKELNIQVDDGYARKIFRECDHSQTDSLEDEEIETFYKMLTQRAEIDRAFEEAAGSAETLSVERLVTFLQHQQREEEAGPALALSLIERYEPSETAKAQRQMTKDGFLMYLLSADGNAFSLAHRRVYQDMDQPLSHYLVSSSHNTYLLEDQLTGPSSTEAYIRALCKGCRCLELDCWDGPNQEPIIYHGYTFTSKILFCDVLRAIRDYAFKASPYPVILSLENHCSLEQQRVMARHLRAILGPILLDQPLDGVTTSLPSPEQLKGKILLKGKKLGGLLPAGGENGSEATDVSDEVEAAEMEDEAVRSQVQHKPKEDKLKLVPELSDMIIYCKSVHFGGFSSPGTSGQAFYEMASFSESRALRLLQESGNGFVRHNVSCLSRIYPAGWRTDSSNYSPVEMWNGGCQIVALNFQTPGPEMDVYLGCFQDNGGCGYVLKPAFLRDPNTTFNSRALTQGPWWRPERLRVRIISGQQLPKVNKNKNSIVDPKVIVEIHGVGRDTGSRQTAVITNNGFNPRWDMEFEFEVTVPDLALVRFMVEDYDSSSKNDFIGQSTIPWNSLKQGYRHVHLLSKNGDQHPSATLFVKISIQD,soluble
8,MAHHHHHHSLDSFIMRLLNKPVPGGVAVVDLGEEGPPPRAFYQGKPVLVVREEGRRWIAVVGIPLSTKPGPQKLEVRAATGNHEERFSVGSKHYREQRITLKNKRQVNPLPEDLKRIERELAEQTAAYRRFSPGLPSNLMLDKPVDGPLSSPFGLRRFFNGEERNPHSGLDFAVPAGTPIKAPAAGKVILIGDYFFNGKTVFVDHGQGFISMFCHLSKIDVKLGQQVPRGGVLGKVGATGRATGPHMHWNVSLNDARVDPAIFIGAFQPEG,soluble
9,MTTRCPWVGEQSIYIDYHDKEWGKPEFDSQKLFEKICLEGQQAGLSWITVLKKRESYREAFHQFDPKKIAKMTALDIDACMQNSGLIRHRAKLEAIVKNAKAYLAMEKCGENFSDFIWSFVNHKPIVNDVPDLRSVPTKTEVSKALSKALKKRGFVFIGETTCYAFMQSMGLVDDHLNDCPCKTSLEHHHHHH,soluble
10,MKISVLVPTLGTREKEIRRLLETLEKQSYKDFEIIFVTQDNHEIVKDIIYKYSNLDIKQIEMSVKGLSRARNRGLEQASGEIVVLSDDDCWYPANAFEIVVNAFKKRQCAKIVLSQIFDPEKNIPYKNYTSDEEYVRNKLQLMSKSSIEVAFKKDLVMNKKFDERLGLGSEFVCGEEVDFLLSNYEKNAIFYIPEVTVYHKKKENGSSNKQIIAKGAIYGKNFNIFICVLVLLRDLMLKKENNFKYFFEGYNEYFKRTN,not soluble
11,MNENKLRRLIKKNEYEKLDFKLKIELFTESVKKELAKDICAIANSRGGRGYIIIGVEDKTKKIVGVDADYITEERVQQIVASRIEPPVPISLEECFLDGKRLLVIVIFNSYQKPYQIRENGAFYIRRGSTTDIMRKQELLSEFQKGISFNLETCPIVNSNIDFLNEELVRRYFYLKGIKISKENREFLLSSSNIIHKNNISGKSMCTLGGLLVFSDVNSIYIPHNMIKIRNLLGGEQTFIIRGNILDMMKSMEKKLREIVPNEYPVALIIDTIRNILIYRDYSQYNKIVEVVLGKKELTVYCPGEIVKRYRDGRIGYIKRNMWIYEKIISLDSRDGEMNYNLGGKEVKESFTNKVKVITVNEENITKFIFNKYRTIGLEHHHHHH,soluble
12,MKAKPSHQATSMSSSLRVSPSIHGYHFDTAARKKAVGNIFENIDQESLQRLFRNSGDKKAEERAKIIFAIDQDLEEKTRALMALKKRTKDKLLQFLKLRKYSIKVH,not soluble
13,MAHHHHHHMSVRSGQFNYDAVARESPVGFTKITEGTTAVLEPPPKKKTCTSSAAPAPASNLSDEEADNQLVDQAVFYNPAQVVNRDLSISVIEVFSRLRLTEPRRRGGTNEGITILEALSATGLRAIRYYKEITNVRYIIANDMDADAVDCIVRNCAYNGVPVQYPTLMANMPAAAIELYAGEAEAEKGESATGASPRVGVRAGGAILPNLDDANDLMFRLAMNSNAHPGKRVCLVDAPAETSATASLRPLLQQELMDVVDLDPYGSASPFLDGAFRCIKEGGLMLVTSTDSAILCGNFADTAHAKYSSMPYKAAHCHEAAVRTLLACVERVANRHQKFIVPLLSLHIDFYVRCFFRVYKQPAETKLSACKLGYQLQCSSCSAFWVRPMATARQPRPSRQERRRQRRALAGRVNSDADEAEEEGKTAEGAAEASRAHARPRRLSKRVRDGSDDDEAVAHDVDGVRTEVYPASPSRHSHPKITPLTLQQMPSAASATSTTAATACPVCGSSIVLSGPLYAAPTQNCEFLQQLLALLHERASEGRLNAEARITGLVRIALEELPDCPLFYLLPDVASYVRVRCPPTPCIVGALARLGYRCSQVHCAAAGLKTDCPPEVLFRVMLQWKTVQDTLDPVGEATIEDGADKSKKKAPAASTAPRSLLVTPLAEADFTYDKAHDFRGRVTGVAKFVPNASGWGPRRRHRGAAAVPEAVECGNGEDNDGGSGEA,not soluble
14,SNAMLDITTITRQNVTSVVGYYSDAKDDYYSKDSSFTSWQGTGAEALGLSGDVESARFKELLVGEIDTFTHMQRHVGDAKKERLGYDLTFSAPKGVSMQALIHGDKTIIEAHEKAVAAAVREAEKLAQARTTRQGKSVTQNTNNLVVATFRHETSRALDPDLHTHAFVMNMTQREDGQWRALKNDELMRNKMHLGDVYKQELALELTKAGYELRYNSKNNTFDMAHFSDEQIRAFSRRSEQIEKGLAAMGLTRETADAQTKSRVSMATREKKTEHSREEIHQEWASRAKTLGIDFDNREWQG,soluble
15,MGSDKIHHHHHHMDLASRLLLLLEVSELGSFVKVSELRNVNRSAISKQIGKLEKELGVHLLNRTTRSLSLTAAGSEMVNQAKQLRDLLNNSKRLAENYHSEPRGELKISSSTLFGRQYVQQAVLKFQAQYPDIRIELLLEDRIVDLVGEGFDIGFRIGEPKESNLIAKQIAQNRLLIVAAPSFIEKHGKPTTIPKLESLPAVVYSAQGLLIDKIKYLDNTGNEAFIQLNTAYKVNEVEMLINTAVAGEMLTVTTAQMIENEVLEGKLIPIMTHINLADYGTFYAVYPHRNSPLKTKLFIETLKEVVGDKRPIWETRIPGFDKMYNNKT,not soluble
16,MKKLAFAITAASGAAAVLSHHDAEASTQHKVQSGESLWTIAQQYNTSVESIKQNNNLSNNMVFPGQVINVGGSASQNTSSNTSSSSASSHTVVAGESLNIIANKYGVSVDALMQANHLNGYLIMPNQILTIPNGGSGSGSGGTATQTSGNYTSPSFNHQNLYTEGQCTWYVFDKRSQAGKPISTYWSDAKYWASNAANDGYQVDNTPSVGAIMQSTPGPYGHVAYVERINGDGSILISEMNYANGPYNMNYRTIPASEVSSYAFIHLEHHHHHH,not soluble
17,AHHHHHHGSVSKPHGGKLIRRIAAPRTRERILSEQHEYPRVQIDHGRAIDLENIAHGVYSPLKGFLTREDFESVLDYMRLSDDTPWTIPIVLDVGEPTFEGGDAILLYYENPPIARMHVEDIYTYDKKEFAVKVFKTDDPNHLGVARVYSMGKYLVGGGIELLNELPNPFAKYTLRPVETRILFKERGWKTIVAFQTRNVPHLGHEYVQKAALTFVDGLFINPVLGRKKKGDYKDEVIIKAYYLIMKYCSNTTHHAIMRKTSTSSQT,not soluble
18,MADQHPTAQRPIDAHGIIGDMRSAALVDDQGSIDFFCWPEFDSPSIFCSLLDSPAAGIFELAPVLADARRQQIYLPDSNVLQTRWLGTEAVVEVTDLLTIDDDPEQLPLLIRRVRVVSGQATLRLHCAPRLDYLEHHHHHH,not soluble
19,MVKTGIEDVCGHWGHNFWRDKFKKFDDKYLRNVLIRENQPKSSIVSLYKKLEIKHAIEMAETGMISTVPTFASLNDCREEKIRKVTSSETDEIRELLSRNLYQIRQRTLSYNRHSLTADTSERQAKEILIRRRHSLRESIRKDSSLNREHRASTSTSRYLSLPKNTKLPEKLQKRRTISIADGNSSSSDAHAGTTVLNLLEHHHHHH,not soluble
20,GVTGISTGFIDLNKKTAGLQPSDLIIVAARPSMGKTTFAMNLCENASLHDIEDHNDLDENGNPRKKPAKPVLIFSLEMPADQIMMRMLASLSRVNQTKIRTGQIHDDEEWAKISSTVAILQERKNIFIDDSAGLTPTELRSRARRIYRENGGLSLIMVDYLQLMRVPNFSDNRTLEIAEISRSLKALAKELEVPVVALSQLNRSLEQRQDKRPVNSDL,not soluble
